Test results reported in patent publication US20140004536A1 (PERSEUS PROTEOMICS, published 2014).

Target: T1, human LY6D (human, UniProt Q14210 21-98, GPI anchor)
T1 construct: whole, on cells; On living cells for FCM, cell ELISA and microscopy; Solubilised from biotinylated cells with surfactant (or released by PI-PLC) for immunoprecipitation and western blot; also called E48 antigen
T1 sequence (looked up): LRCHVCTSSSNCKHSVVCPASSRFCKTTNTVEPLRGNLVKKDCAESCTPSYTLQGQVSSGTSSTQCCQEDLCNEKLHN
Test: confocal laser microscopy, cell ELISA and FCM on X-ray-irradiated MCF10A cells; the antigen is identified as LY6D later in the filing
Protocol: X-ray-irradiated cells and non-irradiated cells were prepared, and antibodies specific to the irradiated cells were screened for by cell ELISA. That is, reactivity of antibody to both cells was examined by ELISA. A blocking solution (5% skim milk/0.05% NaN₃/PBS) was added at 200 μL/well to both cells, followed by blocking at 37° C. for 2 hours. The blocking solution was removed and the cells were washed with PBS. The supernatant of the above antibody expression culture was added at 100 μL/well, followed by reaction at 37° C. for 1 hour. The resultant was washed five times with PBS. Rabbit anti-cp3 (1 μg/mL) diluted with PBS/0.05% Tween 20 was added at 100 μL/well, followed by reaction at 37° C. for 1 hour. The resultant was washed five times with PBS. Anti-Rabbit IgG (H+L)-HRP diluted 2000-fold with PBS/0.05% Tween 20 was further added at 100 μL/well, followed by reaction at 37° C. for 1 hour. The resultant was washed five times with PBS. […] Then, the absorbance at 492 nm was measured by SPECTRAmax340PC (Molecular Devices). Antibodies showing obvious positive reactivity specific to only the irradiated cells were selected and DNA sequences of the phages were analyzed.
Selection of clones from the antibody library was carried out as follows. […] The 20 candidates were analyzed by flow cytometry (FCM).

B1: E33-139 monoclonal antibody (scFv)
scFv: MAEVQLVESGGGLVQPGRSLRLSCAASGFTFDDYAMHWVRQAPGKGLEWVSGISWNSGSIGYADSVKGRFTISRDNAKNSLYLQMNSLRAEDTALYYCAKTGILDAFDIWGQGTTVTVSRGGGGSGGGGSGGGGSMAQSVLTQPPSVSGAPRQTVTISCSGSSSNIGQNSVTWYQRLPGEAPKLLIYYDDLLHSGVSDRFSGSKSGTSASLAISGLQSEDEAEYYCASWDDSLKGPVFGGGTKLTVLGQPKAAPSVTLFPPSSEELQANKATLVCLISDFYPGAVTVAWKADSSPVKAGVETTTPSKQSNNKYAASSYLSLTPEQWKSHKSYSCQVTHEGSTVEKTVAPTECSAR
notes: Human phage antibody from the AIMS5 library; No result is reported for the IgG; not shown: clones were tested as scFv-CL fused to cp3 or to the protein A domain (scFv-CL-P)
Does B1 bind?
Result: binds
